According to US20230285582A1 (published 2023):
Positions count from the first letter of the chain named. Names may count otherwise.

T1: cynomolgus monkey (Macaca fascicularis) TfR1 (cynomolgus monkey (Macaca fascicularis), UniProt Q5RDH6 89-760 (Pongo abelii entry), limits assumed)
T1 construct: also called cTfR1; cyTfR1
T1 chain: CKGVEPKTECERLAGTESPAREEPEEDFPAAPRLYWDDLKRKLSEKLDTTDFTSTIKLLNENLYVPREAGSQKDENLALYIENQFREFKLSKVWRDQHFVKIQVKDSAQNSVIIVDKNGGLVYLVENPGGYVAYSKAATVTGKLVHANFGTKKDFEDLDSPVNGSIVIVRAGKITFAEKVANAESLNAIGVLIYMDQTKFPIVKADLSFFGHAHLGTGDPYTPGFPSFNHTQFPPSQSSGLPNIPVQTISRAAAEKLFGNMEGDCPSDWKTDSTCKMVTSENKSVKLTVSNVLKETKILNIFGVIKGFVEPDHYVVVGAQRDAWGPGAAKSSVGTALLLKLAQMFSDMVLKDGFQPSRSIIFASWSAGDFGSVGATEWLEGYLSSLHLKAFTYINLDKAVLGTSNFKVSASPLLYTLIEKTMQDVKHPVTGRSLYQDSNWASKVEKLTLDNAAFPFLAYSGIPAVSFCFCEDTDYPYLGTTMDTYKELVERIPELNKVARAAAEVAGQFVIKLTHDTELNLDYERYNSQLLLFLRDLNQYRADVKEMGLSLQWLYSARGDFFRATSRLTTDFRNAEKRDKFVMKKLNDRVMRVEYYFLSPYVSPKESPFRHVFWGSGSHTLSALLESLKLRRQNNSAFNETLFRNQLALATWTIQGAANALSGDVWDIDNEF

B1: humanized anti-TfR Fab 5H12 VH5 (C33Y)/Vk4 (Fab, V domains shown)
VH: QVQLVQSGAEVKKPGASVKVSCKASGYSFTDYYINWVRQAPGQGLEWMGWIYPGSGNTRYSERFKGRVTITRDTSASTAYMELSSLRSEDTAVYYCAREDYYPYHGMDYWGQGTLVTVSS
VL: DIVMTQSPDSLAVSLGERATINCRASESVDGYDNSFMHWYQQKPGQPPKLLIFRASNLESGVPDRFSGSGSGTDFTLTISSLQAEDVAVYYCQQSSEDPWTFGQGTKLEIKR
B2: humanized anti-TfR Fab 5H12 VH5 (C33Y)/Vk3 (Fab, V domains shown)
VH: B1 VH
VL: B1 VL with M4L, G72R
B3: humanized anti-TfR Fab 5H12 VH5 (C33D)/Vk4 (Fab, V domains shown)
VH: B1 VH with Y33D
VL: B1 VL
B4: humanized anti-TfR Fab 3M12 VH3/Vk2 (Fab, V domains shown)
VH: QVQLQESGPGLVKPSQTLSLTCSVTGYSITSGYYWNWIRQPPGKGLEWMGYITFDGANNYNPSLKNRVSISRDTSKNQFSLKLSSVTAEDTATYYCTRSSYDYDVLDYWGQGTTVTVSS
VL: DIQMTQSPSSLSASVGDRVTITCRASQDISNFLNWYQQKPGQPVKLLIYYTSRLHSGVPSRFSGSGSGTDFTLTISSLQPEDFATYFCQQGHTLPYTFGQGTKLEIKR
B5: humanized anti-TfR Fab 3M12 VH3/Vk3 (Fab, V domains shown)
VH: B4 VH
VL: B4 VL with F87Y
B6: anti-TfR Fab 3M12 VH4/Vk3 (Fab, V domains shown)
VH: B4 VH with S23T, M49I
VL: B4 VL with F87Y
B7: humanized anti-TfR Fab 3M12 VH4/Vk2 (Fab, V domains shown)
VH: B4 VH with S23T, M49I
VL: B4 VL
B8: humanized anti-TfR Fab 3A4 VH3 (N54T)/Vk4 (Fab, V domains shown)
VH: EVQLVQSGSELKKPGASVKVSCTASGFNIKDDYMYWVRQPPGKGLEWIGWIDPETGDTEYASKFQDRVTVTADTSTNTAYMELSSLRSEDTAVYYCTLWLRRGLDYWGQGTLVTVSS
VL: DIVMTQSPLSLPVTPGEPASISCRSSKSLLHSNGYTYLFWFQQRPGQSPRLLIYRMSNLASGVPDRFSGSGSGTDFTLKISRVEAEDVGVYYCMQHLEYPFTFGGGTKVEIKR
B9: humanized anti-TfR Fab 3A4 VH3 (N54S)/Vk4 (Fab, V domains shown)
VH: B8 VH with T55S
VL: B8 VL
B10: humanized anti-TfR Fab 3A4 VH3/Vk4 (Fab, V domains shown)
VH: B8 VH with T55N
VL: B8 VL
B11: conjugate of humanized anti-TfR Fab 5H12 VH5 (C33Y)/Vk4 with DMPK-targeting oligonucleotide ASO300 (Fab, V domains shown)
VH: B1 VH
VL: B1 VL
modifications: ASO300 oligonucleotide attached through a cleavable Val-Cit linker (Formula (C)); residue and chain not stated
notes: also called 5H12 (VH5-C33Y/Vk4) conjugate; DMPK oligo conjugate
B12: conjugate of humanized anti-TfR Fab 5H12 VH5 (C33Y)/Vk3 with DMPK-targeting oligonucleotide ASO300 (Fab, V domains shown)
VH: B1 VH
VL: B1 VL with M4L, G72R
modifications: ASO300 oligonucleotide attached through a cleavable Val-Cit linker (Formula (C)); residue and chain not stated
notes: also called 5H12 (VH5-C33Y/Vk3) conjugate
B13: conjugate of humanized anti-TfR Fab 5H12 VH5 (C33D)/Vk4 with DMPK-targeting oligonucleotide ASO300 (Fab, V domains shown)
VH: B1 VH with Y33D
VL: B1 VL
modifications: ASO300 oligonucleotide attached through a cleavable Val-Cit linker (Formula (C)); residue and chain not stated
notes: also called 5H12 (VH5-C33D/Vk4) conjugate; DMPK oligo conjugate
B14: conjugate of humanized anti-TfR Fab 3M12 VH3/Vk2 with DMPK-targeting oligonucleotide ASO300 (Fab, V domains shown)
VH: B4 VH
VL: B4 VL
modifications: ASO300 oligonucleotide attached through a cleavable Val-Cit linker (Formula (C)); residue and chain not stated
notes: also called 3M12 (VH3/Vk2) conjugate; DMPK oligo conjugate
B15: conjugate of humanized anti-TfR Fab 3M12 VH4/Vk3 with DMPK-targeting oligonucleotide ASO300 (Fab, V domains shown)
VH: B4 VH with S23T, M49I
VL: B4 VL with F87Y
modifications: ASO300 oligonucleotide attached through a cleavable Val-Cit linker (Formula (C)); residue and chain not stated
notes: also called 3M12 (VH4/Vk3) conjugate; DMPK oligo conjugate
B16: conjugate of humanized anti-TfR Fab 3A4 VH3 (N54T)/Vk4 with DMPK-targeting oligonucleotide ASO300 (Fab, V domains shown)
VH: B8 VH
VL: B8 VL
modifications: ASO300 oligonucleotide attached through a cleavable Val-Cit linker (Formula (C)); residue and chain not stated
notes: also called 3A4 (VH3-N54T/Vk4) conjugate; DMPK oligo conjugate
B17: conjugate of humanized anti-TfR Fab 3A4 VH3 (N54S)/Vk4 with DMPK-targeting oligonucleotide ASO300 (Fab, V domains shown)
VH: B8 VH with T55S
VL: B8 VL
modifications: ASO300 oligonucleotide attached through a cleavable Val-Cit linker (Formula (C)); residue and chain not stated
notes: also called 3A4 (VH3-N54S/Vk4) conjugate; DMPK oligo conjugate
B18: conjugate of humanized anti-TfR Fab 3A4 VH3/Vk4 with DMPK-targeting oligonucleotide ASO300 (Fab, V domains shown)
VH: B8 VH with T55N
VL: B8 VL
modifications: ASO300 oligonucleotide attached through a cleavable Val-Cit linker (Formula (C)); residue and chain not stated
notes: also called 3A4 (VH3/Vk4) conjugate; DMPK oligo conjugate

Target: T1, cynomolgus monkey (Macaca fascicularis) …
Assay: ELISA, d9 (after 9 days at 40 C)

| EC50 [nM] | Binder |
| --- | --- |
| 0.26 | B1 |
| 0.69 | B2 |
| 0.63 | B3 |
| 19.5 | B4 |
| 15.6 | B5 |
| 16.4 | B6 |
| 5.01 | B7 |
| 128 | B8 |
| 248 | B9 |
| 878 | B10 |

Target: T1, cynomolgus monkey (Macaca fascicularis) …
Assay: ELISA, coated recombinant TfR1, Fab-ASO300 conjugate

| EC50 [nM] | Binder |
| --- | --- |
| 3.3 | B11 |
| 2.3 | B12 |
| 10.2 | B13 |
| 2.9 | B14 |
| 2.1 | B15 |
| 4.7 | B16 |
| 7.8 | B17 |
| 7.6 | B18 |

Target: T1, cynomolgus monkey (Macaca fascicularis) …
Assay: ELISA, Fab-ASO300 conjugate

| EC50 [nM] | Binder |
| --- | --- |
| 13.9 | B11 |
| 10.2 | B13 |
| 2.26 | B14 |
| 1.85 | B15 |
| 5.12 | B16 |
| 4.1 | B17 |
| 7.59 | B18 |

Target: T1, cynomolgus monkey (Macaca fascicularis) …
Assay: ELISA, d0
Method: (§1) To measure binding of humanized anti-TfR antibodies to TfR1, ELISAs were conducted. High binding, black, flat bottom, 96 well plates (Corning# 3925) were first coated with 100 µL/well of recombinant huTfR1 at 1 µg/mL in PBS and incubated at 4° C. overnight. Wells were emptied and residual liquid was removed. Blocking was conducted by adding 200 µL of 1%BSA (w/w) in PBS to each well. Blocking was allowed to proceed for 2 hours at room temperature on a shaker at 300 rpm. After blocking, liquid was removed and wells were washed three times with 300 µL of TBST. Anti-TfR1 antibodies were then added in 0.5% BSA/TBST in triplicate in an 8 point serial dilution (dilution range 5 µg/mL- 5 ng/mL). A positive control and isotype controls were also included on the ELISA plate. The plate was incubated at room temperature on an orbital shaker for 60 minutes at 300 rpm, and the plate was washed three times with 300 µL of TBST. Anti-(H+L)IgG-A488 (1:500) (Invitrogen #A11013) was diluted in 0.5% BSA in TBST, and 100 µL was added to each well. The plate was then allowed to incubate at room temperature for 60 minutes at 300 rpm on orbital shaker. The liquid was removed and the plate was washed four times with 300 µL of TBST. Absorbance was then measured at 495 nm excitation and […] (with a 15 nm bandwidth) on a plate reader. Data was recorded and analyzed for EC₅₀. […] ELISA measurements were conducted using cynomolgus monkey (Macaca fascicularis) TfR1 (cTfR1) according to the same protocol described above for hTfR1, and results are shown in FIGS. 9B, 9D, and 9F.

| EC50 [nM] | Binder |
| --- | --- |
| 3.3 | B1 |
| 2.1 | B2 |
| 3.5 | B3 |
| 9.9 | B4 |
| 4.7 | B5 |
| 1.4 | B7 |
| 156 | B8 |
| 398 | B9 |
| 122 | B10 |

Target: T1, cynomolgus monkey (Macaca fascicularis) …
Assay: ELISA, coated recombinant TfR1, unconjugated Fab
Method: as §1

| EC50 [nM] | Binder |
| --- | --- |
| 3.3 | B1 |
| 2.1 | B2 |
| 3.5 | B3 |
| 9.9 | B4 |
| 4.7 | B5 |
| 1.4 | B7 |
| 156 | B8 |
| 398 | B9 |
| 122 | B10 |
